Experimental data reported in US8153597B2, “Modulators of the ABC transporter family and methods for their use” (priority 2003, dated 2012).
Where two headings read alike, the source gives them in different places.

Experiments:
[1] = system: CFTR-mediated Cl− secretion; assay: Ussing chamber: CFTR-mediated Cl− secretion (Isc) across polarized CFBE41o− human airway epithelial cells; format: cell-based
Experimental: These experiments were conducted in CFBE41o− cells stably expressing either wt-CFTR or ΔF508-CFTR and in parental (non-transfected ΔF508/ΔF508) CFBE41o− cells. To increase apical membrane expression of ΔF508-CFTR, cells were grown at 27° C. for 36 hours in accordance with methods set forth in Example 5. […] Parental CFBE41o− cells, and CFBE41o− cells stably expressing either wt-CFTR or ΔF508-CFTR were incubated at 27° C. in a CO2 incubator in the absence of antibiotics. Vehicle or PA14 bacteria (5×10^8 CFU/ml) were added to the apical side of the monolayers.
Monolayers grown on Transwell (6.5 mm diameter) or Snapwell (12 mm diameter) permeable supports, as described in Example 1, were mounted in an Ussing-type chamber (Jim's Instruments; Iowa City, Iowa or Physiologic Instruments; San Diego, Calif.) and bathed in solutions, pH 7.4 maintained at 37° C. and stirred by bubbling with 5% CO2/95% air. Short circuit current (Isc) was measured by voltage-clamping the transepithelial voltage across the monolayers to 0 mV with a voltage clamp (model VCC MC6, Physiologic Instruments, San Diego, Calif.). Current output from the clamp was digitized by an analog-to-digital converter (iWorx; Dover, N.H.). Data collection and analysis were done with LabScribe v1.6 Software (iWorx; Dover, N.H.). Stimulated Isc was measured after addition of 100 μM CPT-cAMP (Calu-3 and MDCK cells) or 20 μM forskolin (wt-CFTR CFBE41o− cells) to the apical and basolateral bath solution or 50 μM genistein (ΔF508-CFTR CFBE41o− cells) to the apical bath solution. Net stimulated Isc (ΔIsc) was calculated by subtracting the baseline Isc measured before stimulation from the peak Isc measured after stimulation. Glybenclamide (200 μM) was added to the apical bath solution to inhibit CFTR-mediated Isc.
CFBE41o− cells were bathed in solutions with a basolateral-to-apical Cl− gradient in the presence of amiloride (100 μM) in the apical bath solution to inhibit Na+ absorption through the epithelial Na+ channel (ENaC). […]

[2] = Epoxide hydrolase activity assay, degradation of (S)-NEPC; format: biochemical; conditions: purified protein; 60 minute incubation period
Experimental: To assess whether Cif acts as an epoxide hydrolase, its ability to degrade the synthetic epoxide hydrolase substrate (2S,3S)-trans-3-Phenyl-2-oxiranylmethyl 4-nitrophenyl carbonate ((S)-NEPC) was assessed. This assay measures the production of the product p-nitrophenol, which is yellow in color and absorbs maximally at 405 nm.
Purified PA2934-His was assayed for its ability to degrade the epoxide hydrolase synthetic substrate (2S,3S)-trans-3-Phenyl-2-oxiranylmethyl 4-nitrophenyl carbonate ((S)-NEPC) (Sigma, St. Louis, Mo.). […] Degradation of (S)-NEPC was measured as an increase in absorbance at OD405 utilizing a Molecular Devices SpectraMax M2 plate reader. Reactions were normalized to controls lacking enzyme, accounting for spontaneous hydrolysis of the substrate.

MDCK-GFP-MDR1 cells = format: cell-based, canine; conditions: pre-treatment 60 min, then Dox (0, 1, 3, 5 or 10 μM) for 4 hrs at 37 C; buffer ˜5%
Description: The studies above indicate that CIF reduces the plasma membrane expression of P-glycoprotein (i.e. Pgp or multidrug resistance protein (MDR)), MRP2, BCRP and other members of the ABC transmembrane protein family, whose functions include the transport of small molecules across cell membranes. More specifically, members of the ABC transporter family function by preventing therapeutics including but not limited to anti-cancer therapies and antibiotics from accumulating in the central nervous system, and by conferring the observed “drug resistance” of numerous cancers. […]
MDCK-GFP-MDR1 cells, MDCK-C7 cells stably transfected with GFP-Pgp under the transcriptional control of human MDR1 promoter as described by Maitra et al. (Biochem J 2001 355:617-624) were used in these studies. […] Cell viability was then assessed using the CellTiter 96Queous One Solution Cell Proliferation assay. After incubating for 4 hours at 37° C., the absorbance was determined at 490 nm.

wt-CFTR = assay: Cell-surface biotinylation: apical membrane expression of wt-CFTR in canine (MDCK) cells; format: cell-based; conditions: purified protein
Experimental: In these experiments two human cell lines endogenously expressing CFTR, Pgp, BCRP and MRP2, and polarized canine and rat cells stably expressing wild-type (wt)-CFTR and/or Pgp, were contacted with a pelleted fraction of either P. aeruginosa strain PA14 or eight different clinical isolates. Apical membrane expression of CFTR, Pgp, and MRP2 was measured by cell-surface biotinylation. Epithelial cells were then lysed and biotinylated proteins were isolated, separated and amounts of apical membrane expression of CFTR, PgP and MRP2 were determined.
Epithelial cell cultures were grown on Transwell permeable growth supports (24 mm diameter, 0.4 μm pore size; Corning Corporation, Corning, N.Y.: #3412). Apical membrane expression of CFTR, Pgp, MRP1, BCRP and MRP2 was measured by cell-surface biotinylation as described by Lisanti, et al. (J. Cell Biol. 1989 109:2117-2127) and Swiatecka-Urban et al. J. Biol. Chem. 2002 277(42):40099-105).
MDCK cells stably expressing GFP-wt-CFTR or GFP-ΔF508-CFTR fusion proteins were established and maintained in culture in a 5% CO2/95% air incubator at 37° C. in MEM complete medium containing 50 U/ml penicillin, 50 μg/ml streptomycin, 2 mM L-glutamine, 10% FBS, and 150 μg/ml G418. Addition of GFP to the N-terminus of CFTR has no effect on CFTR localization, trafficking, function as a Cl channel, or on its degradation. MDCK cells were seeded on Transwell permeable supports (0.2×10^6 on 6.5 mm and 24 mm diameter, 0.4 μm pore size; Corning Corporation; Corning, N.Y.) and grown in culture at 37° C. for 7-10 days. Under these conditions, MDCK cells become polarized. Sodium butyrate (5 mM; Sigma-Aldrich; St. Louis, Mo.) was added to the MDCK cell culture medium 16-18 hours before experiments to stimulate CFTR expression.
In these experiments, apical membrane proteins were biotinylated at 4° C. using a derivative of biotin (EZ-Link™ Sulfo-NHS-LC-Biotin: Pierce). […] Biotinylated CFTR, Pgp, BCRP and MRP-2 were analyzed by Western blotting using antibodies against CFTR, Pgp, and MRP-2, respectively. […]

## O=C(O)c1ccc(/C=C2\SC(=S)N(c3cccc(C(F)(F)F)c3)C2=O)cc1 [CFTRinh-172, reference compound]
[1]
  inhibition of forskolin stimulated CFTR-mediated Cl− ion secretion: ~50 μA/cm^2

B1: PA2934-His: purified C-terminal penta-histidine tagged PA2934 (Cif, CFTR inhibitory factor; SEQ ID NO:1) expressed in E. coli (protein, listed as Pseudomonas aeruginosa)
chain: MILDRLCRGLLAGIALTFSLGGFAAEEFPVPNGFESAYREVDGVKLHYVKGGQGPLVMLVHGFGQTWYEWHQLMPELAKRFTVIAPDLPGLGQSEPPKTGYSGEQVAVYLHKLARQFSPDRPFDLVAHDIGIWNTYPMVVKNQADIARLVYMEAPIPDARIYRFPAFTAQGESLVWHFSFFAADDRLAETLIAGKERFFLEHFIKSHSSNTEVFSERLLDLYARSYAKPHSLNASFEYYRALNESVRQNAELAKTRLQMPTMTLAGGGHGGMGTFQLEQMKAYADDVEGHVLPGCGHWLPEECAAPMNRLVIDFLSRGR
modifications: C-terminal penta-His tag
[1]; WT-CFBE cells, added to apical face, 50 μg PA2934-His, CFTRinh-172 5 μM
  inhibition of forskolin stimulated CFTR-mediated Cl− ion secretion: ~30 μA/cm^2
[1]; WT-CFBE cells, relative to CFTRinh-172-sensitive current
  reduction of CFTR Cl− currents: approximately 60%
[2]
  epoxide hydrolase activity (degradation of (S)-NEPC, absorbance at 405 nm): capable of degrading this compound in a protein concentration dependent manner
MDCK-GFP-MDR1 cells
  reduction in cell viability: ~25%
wt-CFTR
  effect on apical expression of CFTR: significantly decreases
wt-CFTR; 60 minutes after treatment
  reduction of apical expression of CFTR: > 60%
wt-CFTR; at 90 minutes
  reduction of apical expression of CFTR: > 70%
